# In PMC4403811, “Efficient Cargo Delivery into Adult Brain Tissue Using Short Cell-Penetrating Peptides” (PLoS ONE, 2015):
# Where no end group is shown, it is not given here.
# Legend:
# [1] = system: adult zebrafish brain (telencephalic hemisphere); experiment: Peptide translocation area in the telencephalon after CVMI (fluorescein IHC); settings: 5(6)-carboxyfluorescein-labelled peptide, fluorescein IHC at 1 dpi, n = 3, mean ± s.e.m.
# Description: (§1) Cerebroventricular microinjections (CVMI) were executed as described in [7, 8]. Fish were anesthetized using MESAB (0.01%) and an incision placed above the optic tectum with a fine needle (Becton Dickinson Biosciences). Through this hole a glass capillary is inserted and the liquid disperses evenly throughout the cerebroventricular fluid upon high pressure injection.
# (§2) Fish were sacrificed 1 day post injection and heads fixed over night at 4°C in 2% PFA. Thereafter heads were transferred to 20% Sucrose-EDTA in […] phosphate buffer, pH 7.5. For cryosectioning embedding in Sucrose(20%)-Gelatine (7.5%) on dry ice was done and heads stored at -80°C. 12 μm cryosections were cut using a cryostat microtome and stored at -20°C.
# (§3) Stainings were performed as previously described in [36, 43]. Yet after the first washing step a 6 min citrate buffer treatment at 85°C was done. Primary antibodies were sheep anti-fluorescein AP (1:4000, Roche), mouse anti-PCNA (1:500, Dako Cyto) and rabbit anti L-Plastin (Lcp1, 1:7500, a kind gift from Michael Redd, University of Utah, Salt Lake City, UT, USA), they were diluted in PBS. They were incubated at 4°C overnight and secondary antibodies for 30 min at room temperature. Secondary antibodies were Alexa anti-rabbit and anti-mouse 488, 555 (1:500, Molecular probes). FastRed stainings were carried out using Fast Red TR/Naphtol AS-MX tablets (Sigma), according to manufacturer's instructions. Lastly sections were washed using PBSTx and mounted. All immunohistochemical stainings were done on at least five individuals.
# (§4) Images were acquired using an inverted Zeiss AxioImager Z1. Only sections between the caudal end of the olfactory bulb and anterior commissure were counted. The quantification of the average translocation range was done using the AxioVision free hand surface area measurement tool. The area showing anti-fluorescein staining in the left hemisphere was measured against the total this telencephalic hemisphere, based on color thresholds against control images. The statistical evaluation was performed using GraphPad Prism (Version 6.02) for one-way ANOVA followed by a Tukey’s post-hoc test and for Student’s T-Test. Error bars shown are the s.e.m. and asterisks indicate significance according to: *: p0.05, **: p0.01, ***: p0.001. p>0.05 is considered not significant.
# [2] = system: adult zebrafish brain (telencephalic hemispheres); experiment: Relative fluorescence levels in the telencephalic hemispheres after CVMI (surface plots); settings: CVMI 100 μM; for relative fluorescence levels in the telencephalic hemispheres (level of peptide translocated to deep tissues): Fast-Red staining of cryosections, compared to control PolyD
# Description: as §1, §2, §3
# (§5) Images were acquired using an inverted Zeiss AxioImager Z1. Only sections between the caudal end of the olfactory bulb and anterior commissure were counted. The quantification of the average translocation range was done using the AxioVision free hand surface area measurement tool. The area showing anti-fluorescein staining in the left hemisphere was measured against the total this telencephalic hemisphere, based on color thresholds against control images. […]
# [3] = system: adult zebrafish brain (telencephalon); settings: for number of TUNEL-positive (apoptotic) cells: CVMI 200 μM, 1 dpi, per telencephalic hemisphere per section, n = 3
# Description: as §1, §2
# TUNEL stainings of sections were carried out using the ApoTag Red In Situ apoptosis Detection Kit (Chemicon International). Stainings were performed according to manufacturer’s instructions and positive and negative controls were included.
# as §4
# [4] = system: adult zebrafish brain (telencephalon); experiment: L-Plastin immunohistochemistry for immune response (leukocytes/microglia) after peptide CVMI; settings: for number of L-Plastin-positive cells per hemisphere per section: dose not printed in the block (heading: high doses), PBS-injected control 35 ±6, n = 3, mean ± s.e.m.
# Description: as §1, §2, §3, §4
# [5] = system: adult zebrafish brain (ventricular progenitor cells); settings: CVMI 200 μM, PCNA IHC, n = 3, mean ± s.e.m.
# Description: as §1, §2
# Stainings were performed as previously described in [36, 43]. Yet after the first washing step a 6 min citrate buffer treatment at 85°C was done. […]
# as §5
# [6] = injection concentration 100 μM, stained area vs total hemisphere
# [7] = CVMI at 100 μM, 150 μM and 200 μM (all doses tested), n = 4
Substance,"average area of peptide translocation in one telencephalic hemisphere [1, 6]",average area of peptide translocation in one telencephalic hemisphere ([1]; injection concentration 200 μM),relative fluorescence levels in the telencephalic hemispheres (level of peptide translocated to deep tissues) [2],effectiveness of penetration relative to Trans (relative fluorescence) ([2]; PolyR versus Trans),number of TUNEL-positive (apoptotic) cells [3],"cell death response (TUNEL-positive cells) compared to PolyD control [3, 7]","maximum concentration usable without any cell death response ([3]; CVMI, doses tested 100, 150, 200 μM, TUNEL)","immune response (L-Plastin-positive cells) compared to PolyD control [4, 7]",number of L-Plastin-positive cells per hemisphere per section ([4]; CVMI),"maximum concentration usable without activating the immune system ([4]; CVMI, doses tested 100, 150, 200 μM, L-Plastin IHC)",ventricularly proliferating progenitor cells (PCNA+ cells per telencephalic hemisphere section) [5]
"RRRRRRRRR [PolyR, Poly-Arginine]",70 ± 4%,70 ± 5%,significantly elevated levels of penetration,3 fold,unchanged levels of TUNEL-positive cells,did not elicit any cell death response,not toxic at such concentrations,did not elicit any immune response,do not alter the number of leukocytes/microglia,not causing an immune reaction at tested concentrations,not altered
RPARPAR ({5(6)‑carboxyfluorescein}-RPARPAR) [CendRP],did not show any penetration,–,–,–,–,–,–,–,–,–,–
"DDDDDDDDD ({5(6)‑carboxyfluorescein}-DDDDDDDDD) [PolyD, Poly-Aspartic Acid]",did not show any penetration,–,no translocation,–,did not result in any increase in the number of apoptotic cells,–,–,–,do not alter the number of leukocytes/microglia,–,–
RKKRRQRRR [Tat],27 ±13%,63 ± 11%,–,–,–,–,–,–,–,–,–
